From patent US20100048671

Target: T7-tagged tyrosine kinase Etk (UniProt P51813)
Sequence (P51813 whole entry): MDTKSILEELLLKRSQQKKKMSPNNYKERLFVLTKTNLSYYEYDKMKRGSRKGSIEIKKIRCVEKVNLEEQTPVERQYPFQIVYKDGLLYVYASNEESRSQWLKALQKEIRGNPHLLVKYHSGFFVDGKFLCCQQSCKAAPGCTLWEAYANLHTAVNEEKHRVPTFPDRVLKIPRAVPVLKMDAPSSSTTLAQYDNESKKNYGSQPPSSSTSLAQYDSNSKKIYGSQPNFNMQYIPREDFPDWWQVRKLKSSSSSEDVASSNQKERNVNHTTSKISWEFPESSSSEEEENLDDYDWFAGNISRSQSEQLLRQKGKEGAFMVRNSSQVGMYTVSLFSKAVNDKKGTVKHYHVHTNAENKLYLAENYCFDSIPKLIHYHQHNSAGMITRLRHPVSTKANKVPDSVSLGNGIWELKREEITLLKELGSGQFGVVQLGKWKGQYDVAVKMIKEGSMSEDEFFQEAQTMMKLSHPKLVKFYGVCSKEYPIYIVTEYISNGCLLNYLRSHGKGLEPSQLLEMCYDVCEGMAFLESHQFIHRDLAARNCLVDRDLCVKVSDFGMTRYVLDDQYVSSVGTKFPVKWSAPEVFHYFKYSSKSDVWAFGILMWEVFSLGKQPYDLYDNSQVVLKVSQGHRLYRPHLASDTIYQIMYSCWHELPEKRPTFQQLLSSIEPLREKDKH

Chain of Flag-tagged human 44 kD Pim-1 (Pim-1L) (chain, as listed by the source): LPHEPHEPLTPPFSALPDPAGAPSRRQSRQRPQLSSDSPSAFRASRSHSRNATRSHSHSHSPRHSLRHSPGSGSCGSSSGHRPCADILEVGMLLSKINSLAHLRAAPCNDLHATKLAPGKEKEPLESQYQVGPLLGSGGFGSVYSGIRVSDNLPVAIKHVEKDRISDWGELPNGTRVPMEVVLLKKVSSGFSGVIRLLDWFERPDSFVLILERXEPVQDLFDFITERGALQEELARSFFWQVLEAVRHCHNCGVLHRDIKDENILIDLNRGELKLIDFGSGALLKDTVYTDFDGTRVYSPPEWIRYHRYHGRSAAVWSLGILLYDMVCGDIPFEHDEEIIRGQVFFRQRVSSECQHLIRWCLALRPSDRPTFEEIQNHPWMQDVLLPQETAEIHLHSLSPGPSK
Chain of Flag-tagged Pim-1LΔP (Pim-1L with the first 15 amino acids deleted) (chain, as listed by the source mutant): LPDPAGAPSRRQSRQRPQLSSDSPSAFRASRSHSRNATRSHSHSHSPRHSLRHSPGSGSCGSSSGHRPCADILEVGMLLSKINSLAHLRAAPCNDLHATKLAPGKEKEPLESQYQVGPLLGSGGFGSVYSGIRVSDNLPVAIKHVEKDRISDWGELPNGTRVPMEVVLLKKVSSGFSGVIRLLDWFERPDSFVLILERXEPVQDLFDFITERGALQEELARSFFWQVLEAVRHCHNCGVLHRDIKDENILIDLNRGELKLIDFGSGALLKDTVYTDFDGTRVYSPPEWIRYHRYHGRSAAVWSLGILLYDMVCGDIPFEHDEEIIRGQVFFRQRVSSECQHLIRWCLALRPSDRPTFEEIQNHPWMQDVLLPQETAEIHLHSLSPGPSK

Row | Substance | in vitro kinase assay of Etk (tyrosine phosphorylation of the substrate Gab1) | tyrosine phosphorylation of Etk (IP anti-Etk, blot anti-phosphotyrosine)
1 | Flag-tagged Pim-1LΔP (Pim-1L with the first 15 amino acids deleted) | Deletion of the proline-rich PXXP motifs of Pim-1L (Pim-1LΔP) dramatically diminished its effects on the Etk kinase activity | –
2 | Flag-tagged human 44 kD Pim-1 (Pim-1L) | Co-expression of Etk with Pim-1L enhanced the kinase activity of Etk | unexpected robust increase of tyrosine phosphorylation of Etk
